Results on 1 molecule are retold here after patent JP2012050437A.

Test [1] concerns the target Aβ peptide (bio-DAE peptide). Put plainly: Biacore (data not shown); the immobilised Aβ antigen is not given. Background: Surface plasmon resonance follows binding to a sensor surface in real time, without labels.
The target of test [2] is aggregated synthetic Aβ1-42 (human) (UniProt P05067). Briefly: competition Aβ1-42 ELISA; competitor biotin-conjugated m12A11Cγ2a at a fixed concentration. In general terms: In an ELISA, binding on a coated surface is turned into a signal by an enzyme label.

B1: humanized 12A11 antibody, version 1 (antibody, V domains shown)
VH: QVQLVESGGGVVQPGRSLRLSCAFSGFSLSTSGMSVGWIRQAPGKGLEWLAHIWWDDDKYYNPSLKSRLTISKDTSKNTVYLQMNSLRAEDTAVYYCARRTTTADYFAYWGQGTTVTVSS
VL: DVVMTQSPLSLPVTPGEPASISCRSSQSIVHSNGNTYLEWYLQKPGQSPQLLIYKVSNRFSGVPDRFSGSGSGTDFTLKISRVEAEDVGVYYCFQSSHVPLTFGQGTKLEIK
For orientation: Kd means the equilibrium constant for the complex coming apart. The molecule B1 returned a Kd in test [1] of 23 nM. The molecule further returned a fold of IC50 against murine and chimeric 12A11 in test [2] of less than 2 fold.
